In patent publication US11945858B2, “Antibodies and antibody fragments against HNAV1.7 channel and their use in pain and cancer indications” (NATIONAL RESEARCH COUNCIL OF CANADA, priority 2018, dated 2024):
“Also recorded” adds a separate entry of the source.

Tests used:
hNav1.7 channels = hNav1.7 channels (Homo sapiens, UniProt Q15858, W1161R); experiment: Patch-clamp whole-cell recordings in hNav1.7-HEK293 cells; type: cell-based
[1] = tested on: CFA-induced thermal hyperalgesia; experiment: Hargreaves Model of Hyperalgesia in rats; type: in vivo, rat; details: for Percentage of maximum possible effect (% MPE): 4 h (FIG. 27B)
Description: Hargreaves Model of Hyperalgesia in rats. Rats aged 4-6 weeks (weight range, 180-220 g) were used for intraplantar (ipl) administrations of various antibodies and evaluation of their efficacy in the Hargreaves model of inflammatory pain. Chronic inflammatory pain is induced by injecting a low volume (50 μl) of complete Freund's adjuvant (CFA; heat-killed M. tuberculosis—Sigma, St. Louis, Mo.—suspended in oil:saline 2:1 emulsion) into the right hind paw. The paw withdrawal latency in response to the application of a radiant stimulus onto the plantar surface of both right and left paw was measured using the plantar Analgesia Meter equipment for paw stimulation (IITC Life Science, Woodland Hills, Calif.). The time taken by the animal to respond by licking or flicking its paw is interpreted as positive response (paw withdrawal latency). After 48 h of the CFA injection, the baseline for latency paw withdrawal was measured and the mAbs tested. […] A cut-off time (20 sec) is established at the end of which the heat source shuts off automatically to avoid tissue damage. Animals were kept (randomized) one per cage and staff performing pain experiments are blinded to the content of injectable compounds. Percentage of maximum possible effect (% MPE) was calculated using the formula % MPE=(Test Latency−Baseline Latency)×100/(Cut-off−Baseline Latency).

[2] = tested on: OD1-evoked Nav1.7-mediated spontaneous pain behaviours; type: in vivo, mouse; details: 50 μg VHH
FC5DIE3IR = target: T1, FC5DIE3IR (Homo sapiens, UniProt Q15858); experiment: Surface Plasmon Resonance for VHH antibodies, immobilized FC5DIE3IR; type: binding; details: SPR
T1 construct: The supernatant was collected and loaded on a 5 ml MabSelect™ SuRe™ column; made in house; host or cells: CHO-3E7 (transient, pTT5 vector), purified from supernatant
Description: (§1) Surface Plasmon Resonance for VHH antibodies. For SPR experiments, IMAC-purified VHHs DI-D, DI-4, DI-16, DI-28 and DI-48 were passed through a Superdex 75 (GE Healthcare) column for SEC purification in HBS-EP+buffer (10 mM HEPES, pH 7.4, containing 150 mM NaCl, 3 mM EDTA and 0.05% P20), connected to an AKTAPurifier (GE Healthcare) at a flow rate of 1 ml/min. Monomeric VHH fractions were collected and protein concentration determined by measuring A280 measurement. Using a Biacore T200 instrument (GE Healthcare), approximately 500-1000 RUs of FC5DIE3IR, FC5 and an irrelevant VHH (2A3-H4) were immobilized on a CM5 Series S sensor chip (GE Healthcare) at pH 4.0 using standard amine coupling according to the manufacturer's instructions (GE Healthcare). […] Surfaces were regenerated by washing with a 120 s pulse of 10 mM glycine pH 1.5. Data were analyzed with Biacore T200 Software v 3.0 and affinities determined using steady state binding or a 1:1 binding model.

FC5 = experiment: Surface Plasmon Resonance for VHH antibodies, immobilized FC5; type: binding; details: SPR; 25 C
Chain of FC5 (as listed by the source): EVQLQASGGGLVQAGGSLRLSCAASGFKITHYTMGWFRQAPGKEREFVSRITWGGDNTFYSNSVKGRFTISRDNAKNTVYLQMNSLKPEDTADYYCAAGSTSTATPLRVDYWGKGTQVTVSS
Description: as §1

2A3-H4 = experiment: Surface Plasmon Resonance for VHH antibodies, immobilized irrelevant VHH 2A3-H4; type: binding; details: SPR; 25 C
Description: as §1

VHH FC5 = experiment: Phage ELISA on VHH FC5; type: binding
Chain of VHH FC5 (as listed by the source): as above
Description: FIG. 25A Phages were rescued from individual colonies, selected from the fourth round of panning and grown overnight at 37° C. Wells of a Nunc microtiter plate were coated with FC5DIE3IR and FC5 proteins at 5 μg/ml in PBS. After blocking, 100 μl of phage supernatants (from clones A-H) were added to the respective wells followed by incubation for 1 h at room temperature and addition of anti-M13-HRP conjugate. Binding was detected with TMB substrate and A450 was measured using an ELISA plate reader. As shown, six positive clones (DI-A, DI-B, DI-C, DI-D, DI-E and DI-H), having a signal of at least 3× background, were identified by phage-ELISA.
Additional rounds (up to 3) of panning were performed by coating the ELISA plate with the same proteins and using the amplified phages after each round of panning as described above. After four rounds of panning, 77 randomly picked colonies were grown and subjected to monoclonal phage ELISA screening as described previously (Arbabi-Ghahroudi et al., 2009) except that 5 μg/ml of FC5DIE3IR and FC5 VHH (the negative control) were coated onto a microtiter plate. All positive clones specifically binding to FC5DIE3IR were sequenced and unique VHH sequences were selected for sub-cloning, large-scale expression, and purification. A total of 6 VHHs specific to FC5DIE3IR were isolated. […]

[3] = tested on: FC5DIIIDIR (extracellular loop DIII of the hNav1.7 channels grafted to FC5 scaffold); experiment: Phage ELISA on FC5DIIIDIR; type: binding, human
[4] = −20 mV, after antibody application (1 μM)

B1: DI-D: anti-hNav1.7 VHH from phage-displayed LAC-M naïve library; SEQ ID NO: 38 (protein)
VHH: QVKLEESGGGLVQPGGSLKLSCVASGFAFSSAPMDWVRKAPGKDVEWLSTIESDQDHTIYYANSVKGRFTISRDDVQNILYLQMNDLKIEDTATYYCQKRGEKKTRGQGTQVTVSS
modifications: DI-D
- Reduction currents (%) (hNav1.7 channels; 1 μM): 11.7%±5.8
- Time constant of the block of the hNav1.7 currents (effect onset) (hNav1.7 channels; 1 μM): 113 ± 11 s
- Voltage-dependence of activation (shift V1/2 activation) (hNav1.7 channels; 1 μM): −6.1±1.0 mV
- Voltage-dependence of the steady-state fast inactivation (shift V1/2 inactivation) (hNav1.7 channels; 1 μM): −6.8±1.5 mV
- hNav1.7 current remaining, % of control (hNav1.7 channels; 1 μM, 500 sec recording (FIG. 26B)): approx. 91%
- Onset time of the effect (exponential fit of the current decay, T) (hNav1.7 channels; 1 μM, single time-course recording of the figure): 150 s
- Reduction currents (%) (hNav1.7 channels; 2 μM): 15.0%±6.9
- Time constant of the block of the hNav1.7 currents (effect onset) (hNav1.7 channels; 2 μM): 200 ± 45 s
- Reduction currents (%) (hNav1.7 channels; 3 μM): 24.1%±5.6
- Effect on hNav1.7 currents (in words) (hNav1.7 channels; example recordings, 1-3 μM): reduced hNav1.7 current in a dose dependent manner
- Efficacy (degree of maximum inhibition) (hNav1.7 channels; resting/closed state): 27.4±5. %
- Fast inactivation (time constant) (hNav1.7 channels; [4]): 1.29 ± 0.30 ms
- Time-to-peak (hNav1.7 channels; [4]): 1.64 ± 0.37 ms
- Latency paw withdrawal ([1]; 50 μg intraplantar, 4 h): 8.36 ± 0.53 s
- Percentage of maximum possible effect (% MPE) ([1]; 50 μg intraplantar): 21.59%±4.05
- Latency paw withdrawal ([1]; 100 μg intraplantar, 1 h): 13.35 ± 0.44 s
- Latency paw withdrawal ([1]; 100 μg intraplantar, 2 h): 11.40 ± 0.69 s
- Latency paw withdrawal ([1]; 100 μg intraplantar, 4 h): 11.78 ± 0.50 s
- Percentage of maximum possible effect (% MPE) ([1]; 100 μg intraplantar): 45.19%±4.40
- Effect on spontaneous pain behaviours evoked by OD1 (in words) [2]: reversed spontaneous pain behaviours
- Time spent in pain behaviors (saline plus OD1 = 100%) ([2]; injected 60 minutes prior to OD1, 20 min after the injection): 44.33%±8.8
- Binding to immobilized FC5DIE3IR (comment, in words) (FC5DIE3IR): clear binding; also recorded: binds specifically
- Binding to immobilized FC5 (comment, in words) (FC5): trace amounts of binding; also recorded: Weak/residual binding
- Binding to immobilized 2A3-H4 (comment, in words) (2A3-H4): No binding
- Binding of the phage to VHH FC5 (in words) (VHH FC5): did not bind
- Binding of the phage to FC5DIIIDIR (in words) [3]: did not bind
